According to paper PMC7838873, “Purification and Characterization of Recombinant Expressed Apple Allergen Mal d 1” (Methods and Protocols, 2020):

Assays:
[1] = target: recombinant apple allergen Mal d 1 with a C-terminal polyhistidine-tag (apple (Malus domestica)) (UniProt Q9SYW3); experiment: SDS-PAGE without added reducing agent + in-gel tryptic digestion with HPLC-MS/MS; purified protein after storage at -20 °C, freeze-thawing or freeze-drying (Tris, phosphate or urea buffer); denatured at 95 °C in SDS Laemmli sample buffer, Coomassie stain, band proportions by Fiji; band of higher molecular weight identified by peptides; dimer survives SDS, probably held by a disulfide bridge
[2] = target: the molecule itself; experiment: as above

For “recombinant apple allergen Mal d 1 with a C-terminal polyhistidine-tag (from UniProt Q9SYW3 1-159) (natural protein)”, the stoichiometry N [1] was 2.

B1: recombinant apple allergen Mal d 1 without polyhistidine-tag (natural protein, apple (Malus domestica), UniProt Q9SYW3 1-159, looked up)
chain: MGVYTFENEFTSEIPPSRLFKAFVLDADNLIPKIAPQAIKQAEILEGNGGPGTIKKITFGEGSQYGYVKHRIDSIDEASYSYSYTLIEGDALTDTIEKISYETKLVACGSGSTIKSISHYHTKGNIEIKEEHVKAGKEKAHGLFKLIESYLKDHPDAYN
notes: n = 159 residues used for the CD calculation; pET-28b(+) vector, NcoI/XhoI, insert 485 bp; also called r-Mal d 1; source: E. coli BL21 star (DE3)pLysS, purified (anion-exchange chromatography, TOYOPEARL SuperQ-650S or GigaCap Q-650M)
B1 was tested, and the “stoichiometry N” value [2] was 2.
